{"source": "patent US5985836A", "about": "“Alpha-1 proteinase inhibitor binding peptides” (Bayer Corporation, priority 1998, dated 1999)", "target": "T1, A1PI (Homo sapiens, UniProt P01009)", "T1 construct": "Human plasma is currently the only approved source of therapeutic AlPI", "T1 sequence (P01009 25-418)": "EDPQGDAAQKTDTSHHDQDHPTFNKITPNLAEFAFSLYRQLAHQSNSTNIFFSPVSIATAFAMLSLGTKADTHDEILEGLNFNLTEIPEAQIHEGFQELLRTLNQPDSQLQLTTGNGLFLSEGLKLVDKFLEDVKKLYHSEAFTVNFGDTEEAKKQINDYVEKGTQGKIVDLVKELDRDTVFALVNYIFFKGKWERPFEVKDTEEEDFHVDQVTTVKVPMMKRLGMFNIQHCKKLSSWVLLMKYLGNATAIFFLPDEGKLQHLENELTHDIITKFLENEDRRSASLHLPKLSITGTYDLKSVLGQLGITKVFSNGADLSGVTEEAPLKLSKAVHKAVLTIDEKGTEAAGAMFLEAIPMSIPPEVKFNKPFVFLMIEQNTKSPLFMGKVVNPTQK", "experiment": "A1PI binding on peptide-resin column, injection of 1 mg A1PI in equilibration buffer", "settings": "1 mg AlPI", "how_it_was_run": "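Peptides synthesized on A-Totda-Toyopearl chelate resin (0.1 mmole/g) packed in 0.4×5 cm columns; 1 mg A1PI injected in equilibration buffer at 4 °C or 20 °C, 865 or 523 μl/min. Flowthrough, 1M/3M NaCl washes and 2% acetic acid eluate quantified by A280 or immunonephelometry as percent of total eluted.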", "key": {"[1]": {"settings": "peptide density 17 μmol/g, 20° C."}, "[2]": {"settings": "peptide density 25 μmol/g, 4° C."}, "[3]": {"settings": "peptide density 25 μmol/g, 20° C."}, "[4]": {"settings": "peptide density 39 μmol/g, 4° C."}, "[5]": {"settings": "peptide density 39 μmol/g, 20° C."}, "[6]": {"settings": "peptide density 54 μmol/g, 4° C."}, "[7]": {"settings": "peptide density 54 μmol/g, 20° C."}, "[8]": {"settings": "peptide density 58 μmol/g, 4° C."}, "[9]": {"settings": "peptide density 58 μmol/g, 20° C."}, "[10]": {"settings": "peptide density 99 μmol/g, 4° C."}, "[11]": {"settings": "peptide density 99 μmol/g, 20° C."}, "[12]": {"settings": "peptide density 135 μmol/g, 4° C."}, "[13]": {"settings": "peptide density 135 μmol/g, 20° C."}, "[14]": {"settings": "sequence truncations, 4° C., immunonephelometry"}, "[15]": {"settings": "sequence truncations, 20° C., immunonephelometry"}}, "note": "Ends that are not written are not given here.", "data": [{"substance": "VIFLVR", "values": [{"measurement": "Percent AlPI Eluted by Fraction, Flowthrough", "setting": "peptide density 17 μmol/g, 4° C.", "value": 80, "unit": "%"}, {"measurement": "Percent AlPI Eluted by Fraction, 1M NaCl", "setting": "[1]", "value": 18, "unit": "%"}, {"measurement": "Percent AlPI Eluted by Fraction, 2% Acetic Acid", "setting": "[1]", "value": 22, "unit": "%"}, {"measurement": "Percent AlPI Eluted by Fraction, Flowthrough", "setting": "[1]", "value": 68, "unit": "%"}, {"measurement": "Percent AlPI Eluted by Fraction, 1M NaCl", "setting": "[2]", "value": 1, "unit": "%"}, {"measurement": "Percent AlPI Eluted by Fraction, 2% Acetic Acid", "setting": "[2]", "value": 43, "unit": "%"}, {"measurement": "Percent AlPI Eluted by Fraction, Flowthrough", "setting": "[2]", "value": 57, "unit": "%"}, {"measurement": "Percent AlPI Eluted by Fraction, 1M NaCl", "setting": "[3]", "value": 0, "unit": "%"}, {"measurement": "Percent AlPI Eluted by Fraction, 2% Acetic Acid", "setting": "[3]", "value": 72, "unit": "%"}, {"measurement": "Percent AlPI Eluted by Fraction, Flowthrough", "setting": "[3]", "value": 28, "unit": "%"}, {"measurement": "Percent AlPI Eluted by Fraction, 1M NaCl", "setting": "[4]", "value": 4, "unit": "%"}, {"measurement": "Percent AlPI Eluted by Fraction, 2% Acetic Acid", "setting": "[4]", "value": 96, "unit": "%"}, {"measurement": "Percent AlPI Eluted by Fraction, Flowthrough", "setting": "[4]", "value": 0, "unit": "%"}, {"measurement": "Percent AlPI Eluted by Fraction, 1M NaCl", "setting": "[5]", "value": 0, "unit": "%"}, {"measurement": "Percent AlPI Eluted by Fraction, 2% Acetic Acid", "setting": "[5]", "value": 100, "unit": "%"}, {"measurement": "Percent AlPI Eluted by Fraction, Flowthrough", "setting": "[5]", "value": 0, "unit": "%"}, {"measurement": "Percent AlPI Eluted by Fraction, 1M NaCl", "setting": "[6]", "value": 0, "unit": "%"}, {"measurement": "Percent AlPI Eluted by Fraction, 2% Acetic Acid", "setting": "[6]", "value": 100, "unit": "%"}, {"measurement": "Percent AlPI Eluted by Fraction, Flowthrough", "setting": "[6]", "value": 0, "unit": "%"}, {"measurement": "Percent AlPI Eluted by Fraction, 1M NaCl", "setting": "[7]", "value": 0, "unit": "%"}, {"measurement": "Percent AlPI Eluted by Fraction, 2% Acetic Acid", "setting": "[7]", "value": 100, "unit": "%"}, {"measurement": "Percent AlPI Eluted by Fraction, Flowthrough", "setting": "[7]", "value": 0, "unit": "%"}, {"measurement": "Percent AlPI Eluted by Fraction, 1M NaCl", "setting": "[8]", "value": 4, "unit": "%"}, {"measurement": "Percent AlPI Eluted by Fraction, 2% Acetic Acid", "setting": "[8]", "value": 96, "unit": "%"}, {"measurement": "Percent AlPI Eluted by Fraction, Flowthrough", "setting": "[8]", "value": 0, "unit": "%"}, {"measurement": "Percent AlPI Eluted by Fraction, 1M NaCl", "setting": "[9]", "value": 0, "unit": "%"}, {"measurement": "Percent AlPI Eluted by Fraction, 2% Acetic Acid", "setting": "[9]", "value": 100, "unit": "%"}, {"measurement": "Percent AlPI Eluted by Fraction, Flowthrough", "setting": "[9]", "value": 0, "unit": "%"}, {"measurement": "Percent AlPI Eluted by Fraction, 1M NaCl", "setting": "[10]", "value": 0, "unit": "%"}, {"measurement": "Percent AlPI Eluted by Fraction, 2% Acetic Acid", "setting": "[10]", "value": 100, "unit": "%"}, {"measurement": "Percent AlPI Eluted by Fraction, Flowthrough", "setting": "[10]", "value": 0, "unit": "%"}, {"measurement": "Percent AlPI Eluted by Fraction, 1M NaCl", "setting": "[11]", "value": 0, "unit": "%"}, {"measurement": "Percent AlPI Eluted by Fraction, 2% Acetic Acid", "setting": "[11]", "value": 93, "unit": "%"}, {"measurement": "Percent AlPI Eluted by Fraction, Flowthrough", "setting": "[11]", "value": 7, "unit": "%"}, {"measurement": "Percent AlPI Eluted by Fraction, 1M NaCl", "setting": "[12]", "value": 0, "unit": "%"}, {"measurement": "Percent AlPI Eluted by Fraction, 2% Acetic Acid", "setting": "[12]", "value": 100, "unit": "%"}, {"measurement": "Percent AlPI Eluted by Fraction, Flowthrough", "setting": "[12]", "value": 0, "unit": "%"}, {"measurement": "Percent AlPI Eluted by Fraction, 1M NaCl", "setting": "[13]", "value": 0, "unit": "%"}, {"measurement": "Percent AlPI Eluted by Fraction, 2% Acetic Acid", "setting": "[13]", "value": 95, "unit": "%"}, {"measurement": "Percent AlPI Eluted by Fraction, Flowthrough", "setting": "[13]", "value": 5, "unit": "%"}, {"measurement": "Percent AlPI Eluted by Fraction, 1M NaCl", "setting": "sequence order, 4° C.", "value": 3, "unit": "%"}, {"measurement": "Percent AlPI Eluted by Fraction, 2% Acetic Acid", "setting": "sequence order, 4° C.", "value": 97, "unit": "%"}, {"measurement": "Percent AlPI Eluted by Fraction, Flowthrough", "setting": "sequence order, 4° C.", "value": 0, "unit": "%"}, {"measurement": "Percent AlPI Eluted by Fraction, 1M NaCl", "setting": "sequence order, 20° C.", "value": 7, "unit": "%"}, {"measurement": "Percent AlPI Eluted by Fraction, 2% Acetic Acid", "setting": "sequence order, 20° C.", "value": 93, "unit": "%"}, {"measurement": "Percent AlPI Eluted by Fraction, Flowthrough", "setting": "sequence order, 20° C.", "value": 0, "unit": "%"}, {"measurement": "Percent AlPI Eluted by Fraction, 1M NaCl", "setting": "[14]", "value": 3, "unit": "%"}, {"measurement": "Percent AlPI Eluted by Fraction, 2% Acetic Acid", "setting": "[14]", "value": 97, "unit": "%"}, {"measurement": "Percent AlPI Eluted by Fraction, Flowthrough", "setting": "[14]", "value": 0, "unit": "%"}, {"measurement": "Percent AlPI Eluted by Fraction, 1M NaCl", "setting": "[15]", "value": 7, "unit": "%"}, {"measurement": "Percent AlPI Eluted by Fraction, 2% Acetic Acid", "setting": "[15]", "value": 93, "unit": "%"}, {"measurement": "Percent AlPI Eluted by Fraction, Flowthrough", "setting": "[15]", "value": 0, "unit": "%"}]}]}
